Test results reported in the DeepSol protein solubility set.

Experiment: soluble on expression in E. coli; label from the status in PepcDB or PDB records

| Sequence | soluble on expression in E. coli |
| --- | --- |
| MESAGFHYKLDIPAGTPDCAIVLLHGSGRTEDDLISFGRAVFPTGALYAPRGAVAWENGFAFFRRKPDRELDIDDLKHQATRLCHFVAFVFQQTGRRPILVGYSNGAIIAAETICQAHHLSKGAILLRPLSPRKDQSLPNLAGYPVLLLAGASDDRRHPSDAPHLSEQLTSAGADAVLETINTGHGWAEDAADERLSRQWLARLPIA | not soluble |
| MGSDKIHHHHHHMKSQWECFLQNLGVWEGSFSNFSPEGTLLNDTSSRLCLEGLNNNQTVRLTLSRSGKDDVIREFRSVGGGLLFFENGSFSEGLIQLGPFSEFGGELAFVHENRRLRLVQLFDRNGHLNGLTLIREHLAGTPVAERPLLQINDLLGEWRGQAVTIYRDLRPPDIYSTTLKIQLDDAGRLMQSTSFGERTITSTATIKGSIVLFDQDPEKQVQVLLLPDGASATSPLKVQLRQPLFLEAGWLIQSDLRQRMIRSYNDKGEWVSLTLVTEERV | not soluble |
| MSLEHAAEILANRYVRGDALTNPDATKEYVRCKLGSYEREVFALLLLDNQNRLIEFKELFQGTVDAASVYPREVVKAVLEVNAAAVIFAHNHPSGDSTPSQADRRITERLKDTLALVDVRVLDHIVTGDTCTSFAERGWLEGHHHHHH | not soluble |
| MSLQLRSRAAFKLEFLLDRYRVVRKGDAVIEIGSSPGGWTQVLNSLARKIISIDLQEMEEIAGVRFIRCDIFKETIFDDIDRALREEGIEKVDDVVSDAMAKVSGIPSRDHAVSYQIGQRVMEIAVRYLRNGGNVLLKQFQGDMTNDFIAIWRKNFSSYKISKPPASRGSSSEIYIMFFGFKAEGHHHHHH | soluble |
| MAVLWRLSAVCGALGGRALLLRTPVVRPAHISAFLQDRPIPEWCGVQHIHLSPSHHSGSKAASLHWTSERVVSVLLLGLLPAAYLNPCSAMDYSLAAALTLHGHWGLGQVVTDYVHGDALQKAAKAGLLALSALTFAGLCYFNYHDVGICKAVAMLWKL | not soluble |
| MDALIAQLQRQFRDYTISLYQQGFLDDQFTELKKLQDDGSPDFVSEVLSLFFEDCVKLISNMARALDTTGTVDFSQVGASVHQLKGSSSSVGAKRVKTLCVSFKECCEAKNYEGCVRCLQQVDIEYKALKTKLQDMFNLEKQIIQAGGIVPQVDIN | soluble |
| MDEAYKMRCDWYHHGELVSGGESESKFSQLNDEVVELYQAAEYLDEEFAGMVHLGEIVERDDKKEDEFLAKLADAETPLYPSCFNHSKLSAIMSLFTLKTKNGWSDKSHNDLLETLPEMLLEDNVLHSSLYEVKKFLKSFDMG | not soluble |
| MAAAAELRLLEKSLGLKPGNKYSAQGERQIPVLQTNNGPSLMGLSTIATHLVKQASKEHLLGSTAEEKAMVQQWLEFRVTRVDGHSSKEDTQTLLKDLNSYLEDKVYLAGHNITLADILLYYGLHRFIVDLTVQEKEKYLNVSRWFCHIQHYPDIRQHLSSIVFIKNRLYANSH | not soluble |
| MTKSLESVSFKDVTVDFSRDEWQQLDLAQKSLYREVMLENYFNLISVGCQVPKPEVIFSLEQEEPCMLDGEIPSQSRPDGDIGFGPLQQRMSEEVSFQSEININLFTRDDPYSILEELWKDDEHTRKCGENQNKPLSRVVFINKKTLANDSIFEYKDIGEIVHVNTHLVSSRKRPHNCNSCGKNLEPIITLYNRNNATENSDKTIGDGDIFTHLNSHTEVTACECNQCGKPLHHKQALIQQQKIHTRESLYLFSDYVNVFSPKSHAFAHESICAEEKQHECHECEAVFTQKSQLDGSQRVYAGICTEYEKDFSLKSNRQKTPYEGNYYKCSDYGRAFIQKSDLFRCQRIHSGEKPYEYSECEKNLPQNSNLNIHKKIHTGGKHFECTECGKAFTRKSTLSMHQKIHTGEKPYVCTECGKAFIRKSHFITHERIHTGEKPYECSDCGKSFIKKSQLHVHQRIHTGENPFICSECGKVFTHKTNLIIHQKIHTGERPYICTVCGKAFTDRSNLIKHQKIHTGEKPYKCSDCGKSFTWKSRLRIHQKCHTGERHYECSECGKAFIQKSTLSMHQRIHRGEKPYVCTECGKAFFHKSHFITHERIHTGEKPYECSICGKSFTKKSQLHVHQQIHTGEKPYRCAECGKAFTDRSNLFTHQKIHTGEKPYKCSDCGKAFTRKSGLHIHQQSHTGERHYECSECGKAFARKSTLIMHQRIHTGEKPYICNECGKSFIQKSHLNRHRRIHTGEKPYECSDCGKSFIKKSQLHEHHRIHTGEKPYICAECGKAFTIRSNLIKHQKIHTKQKPYKCSDLGKALNWKPQLSMPQKSDNGEVECSMPQLWCGDSEGDQGQLSSI | soluble |
| GNDIDYSVGGSVSDAVSEVTEYANAKKNDPYGSWYTGRKVGEIWGYRAEGLIQTQEEADAYNAEYDLSYISGKLWEPGDVKYIDLDGNKVIDRGDNRLVDGDMGDQTIIGNTTPRYQYTFNGYISWKGLSLSVMFQGVGKRDWVAGGAYFWGFGPYAQVTVFKEHMDYWRPDNPGAYYPKPYINSAGGVAPYQDKNIQRTDLYLQNAAYCRLKNLTLSYDLPNAWVHKAGLQKVQVFFSGENLLTFTKLKGMFDPEAIFSSNSYTSEGGKNYPMNRVLSLGFIVNL | not soluble |
| MADPTFAEHVATTNSRLASLRANLIDVSTFPEACSELTKWCQDQRAFTAHFEDNLMMALEAAMDYGTRENYDYMLTHGLVGACFTHRKHLSKPAATRIGRWYEQMRRLKKNGGKRKRAPPKPKDPALQASSQPTGTLPVLTSPSCPQNGQQLPTENNNFMFSPNSSDGLVLVIFSSSINFSLKIRVNAKKRKF | not soluble |
| MSEIGTGFPFDPHYVEVLGERMHYVDVGPRDGTPVLFLHGNPTSSYLWRNIIPHVAPSHRCIAPDLIGMGKSDKPDLDYFFDDHVRYLDAFIEALGLEEVVLVIHDWGSALGFHWAKRNPERVKGIACMEFIRPIPTWDEFHHTEVAEEQDHAEAARETFQAFRTADVGRELIIDQNAFIERVLPGGVVRPLTEVEMDHYREPFLKPVDREPLWRFPNELPIAGEPANIVALVEAYMNWLHQSPVPKLLFWGTPGALIPPAEAARLAESLPNCKTVDIGPGLHYLQEDNPDLIGSEIARWLPAL | soluble |
| MKLAARVESVSPSMTLIIDAKAKAMKAEGIDVCSFSAGEPDFNTPKHIVEAAKAALEQGKTRYGPAAGEPRLREAIAQKLQRDNGLCYGADNILVTNGGKQSIFNLMLAMIEPGDEVIIPAPFWVSYPEMVKLAEGTPVILPTTVETQFKVSPEQIRQAITPKTKLLVFNTPSNPTGMVYTPDEVRAIAQVAVEAGLWVLSDEIYEKILYDDAQHLSIGAASPEAYERSVVCSGFAKTYAMTGWRVGFLAGPVPLVKAATKIQGHSTSNVCTFAQYGAIAAYENSQDCVQEMLAAFAERRRYMLDALNAMPGLECPKPDGAFYMFPSIAKTGRSSLDFCSELLDQHQVATVPGAAFGADDCIRLSYATDLDTIKRGMERLEKFLHGIL | soluble |
| MSRETNFNGTKRKRSDVAEKVAQRWKSVRYSAEMENMAPVNSNNDSDDCVIVSESKIIDLTNQEQDLSERIETNDTAKGAVFKLMKSDFYEREDFMGEVEDMITLKDIFGTETLKRSILFSFQYELDFLLRQFHQNVENITIVGQKGTIMPIEARAMDATLAVILKKVKLIEITMPPFASHHTKLIINFYDNGECKIFLPSNNFTSMETNLPQQVCWCSPLLKIGKEGLPVPFKRSLIEYLNSYHLKDIDELITKSVEEVNFAPLSELEFVYSTPSKFQSSGLLSFYNKLEKLSAGTSASDTAKHYLCQTSSIGTSLSRARDENLWTHLMIPLFTGIMSPPAKDTAGRKKAEILPTNSLINEYSQRKIKPYIIFPTEQEFVTSPLKWSSSGWFHFQYLQKKSYYEMLRNKFKVFYKQDPAMVTRRRGTTPAHSKFYMHCATNSAGPCDASQVFKELEWCLYTSANLSQTAWGTVSRKPRNYEAGVLYHSRRLANTRKVTCRTFTRDRRGCAGNPTHVAVPFTLPVIPYDLAEDECFCLARHEND | soluble |
| KAAPAEPATGPFNVSATSPVTGQNYQMSCTAHDHVMRCSGGNNAIVLLTPNPTGVVEEKTYEYALEGTVVLKNTAEVLEGLKPPNNDNPNNEYILLWFDNPMDVAGKHAGNRDQLSTKNVRYLSLGKKETTQYGPLPDTTGPWRQYVGKRIRLHVNSDNMRYPSDTGMPLGALRLEEAPDIRIEEL | not soluble |
